The assay deals with T1, CEH-14_(LIM1+2) as it stands in the tethered CEH-14–LIM-7 complex (C. elegans, UniProt P20271 42-168).
T1 construct: CEH-14, C. elegans, tandem LIM domains LIM1+2, residues 42-168; Joined on one chain with m29 through an 11-residue Gly/Ser linker; the whole chain is m27; also called LIM domains from CEH-14
T1 sequence (looked up): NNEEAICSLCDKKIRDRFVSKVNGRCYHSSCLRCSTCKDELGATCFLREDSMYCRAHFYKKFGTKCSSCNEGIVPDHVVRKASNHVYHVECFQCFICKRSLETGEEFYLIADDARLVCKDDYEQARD
Briefly: SAXS; tethered complex on one chain, 5.2 mg/mL, 50 mM Tris, 100 mM NaCl, 5 mM TCEP pH 8.0 (the legend says 20 mM Tris pH 8.0, 150 mM NaCl, 1 mM TCEP), 10 °C; low-resolution shape restoration. The following applies: both partners purified.

B1: LIM-7LID as it stands in the tethered CEH-14–LIM-7 complex (domain or fragment, C. elegans)
chain: GIGPLMVQPATPHIDNTLGGPIDIQHFAQW
notes: Joined on one chain with m28 through an 11-residue Gly/Ser linker; the whole chain is m27; also called LID from LIM-7
As to B1, the binding result is recorded as “binds”.

For the origin of these results see article PMC5496915, “Interactions between LHX3- and ISL1-family LIM-homeodomain transcription factors are conserved in Caenorhabditis elegans” (Scientific Reports, 2017).
